{
  "source": "paper PMC6985235",
  "about": "“Endomembrane Protein Trafficking Regulated by a TvCyP2 Cyclophilin in the Protozoan Parasite, Trichomonas vaginalis” (Scientific Reports, 2020)",
  "key": {"GST-TvCyP2": {"target": "T1, GST-TvCyP2 (Trichomonas vaginalis, UniProt A2DLL4 1-186)", "T1 construct": "186 aa; source: E. coli DH5α, purified (glutathione-conjugated beads)", "assay": "pull-down; GST pull-down: 30 picomoles of GST or GST-fusion protein on 20 μl glutathione beads with 35 nM His-tagged protein in 1 ml TEN200 (1 mM EDTA, 200 mM NaCl, 20 mM Tris-HCl pH 7.4), 4 °C overnight; washes with 0.1% TritonX-100; anti-6xHis Western blot; in Fig. 3D also with DMSO or 5 μM cyclosporine A (binding greatly diminished)", "settings": "both partners purified"}, "GST-TvCyP2(R75A)": {"target": "T2, GST-TvCyP2(R75A) (Trichomonas vaginalis, UniProt A2DLL4 1-186, R75A)", "T2 construct": "source: E. coli DH5α, purified (glutathione-conjugated beads)", "assay": "pull-down; GST pull-down: 30 picomoles of GST or GST-fusion protein on 20 μl glutathione beads with 35 nM His-tagged protein in 1 ml TEN200 (1 mM EDTA, 200 mM NaCl, 20 mM Tris-HCl pH 7.4), 4 °C overnight; washes with 0.1% TritonX-100; anti-6xHis Western blot; in Fig. 3D also with DMSO or 5 μM cyclosporine A (binding greatly diminished)", "settings": "both partners purified"}},
  "data": [
    {"binder": "His-TvCyP1 (enzyme, TvCyP1 cyclophilin of Trichomonas vaginalis; ~19-kDa band; source: purified) not shown", "values": [
      {"measurement": "binding result", "setting": "GST-TvCyP2", "result": "binds"},
      {"measurement": "binding result", "setting": "GST-TvCyP2(R75A)", "result": "binds"}
    ]}
  ]
}
